Columns and labels:
[1] = substrate: Nc1ccn([C@@H]2O[C@H](CO)[C@@H](O)C2(F)F)c(=O)n1; test: HPLC deamination assay, non-linear regression; assay type: biochemical, Homo sapiens; details: PBS, 37 °C, 10 min, 11 nM enzyme
[2] = substrate: Nc1ccn([C@H]2C[C@H](O)[C@@H](CO)O2)c(=O)n1; test: HPLC deamination assay, non-linear regression; assay type: biochemical, Homo sapiens; details: PBS, 37 °C, 10 min, 11 nM enzyme

B1: CDAHuman (Homo sapiens) (protein)
chain: MAQKRPACTLKPECVQQLLVCSQEAKKSAYCPYSHFPVGAALLTQEGRIFKGCNIENACYPLGICAERTAIQKAVSEGYKDFRAIAIASDMQDDFISPCGACRQVMREFGTNWPVYMTKPDGTYIVMTVQELLPSSFGPEDLQKTQ
Which results are given for B1?
Km [1]: 3080 ± 598 µM; kcat [1]: 14 ± 0.91 s⁻¹; kcat/Km [1]: 4000 M⁻¹ s⁻¹; Km [2]: 373 ± 138 µM; kcat [2]: 7.8 ± 0.64 s⁻¹; kcat/Km [2]: 21000 M⁻¹ s⁻¹

Source: publication PMC4541722
